Key:
mouse PD-L1 Fc = biological target: T1, mouse PD-L1 Fc (mouse, UniProt Q9EP73 19-238); test: competition ELISA, peptide at 3 and 10 uM against mouse PD-1 Fc on coated mouse PD-L1 Fc (FIG. 9A)
T1 construct: Plate-coated reagent; not shown: Fc part
Method: More specifically, mouse and human WT and TF peptides (3 and 10 μM) were mixed with recombinant mouse PD-1 Fc and bound to a mouse PD-L1 Fc coated 96-well Immuno Maxisorp flat bottom plate. Binding was detected via a biotinylated anti-mouse PD-1 antibody, streptavidin-horseradish peroxidase (HRP), and 3,3′, 5,5′ Tetramethylbenzidine (TMB) substrate. Absorbance measurements were collected at 450 nm via a plate reader. The increased percent (%) of mouse (and human) PD-1/PD L1 inhibition was compared to a control (no peptide) sample. […] The differences between the human and mouse peptides are illustrated in FIG. 9B.

[1] = biological target: T2, recombinant human PD-L1 Fc (human, UniProt Q9NZQ7 19-239); test: summary of the examples (competition ELISA, peptide array)
T2 construct: Recombinant reagent; not shown: Fc part
T2 sequence (Q9NZQ7 19-239 limits assumed): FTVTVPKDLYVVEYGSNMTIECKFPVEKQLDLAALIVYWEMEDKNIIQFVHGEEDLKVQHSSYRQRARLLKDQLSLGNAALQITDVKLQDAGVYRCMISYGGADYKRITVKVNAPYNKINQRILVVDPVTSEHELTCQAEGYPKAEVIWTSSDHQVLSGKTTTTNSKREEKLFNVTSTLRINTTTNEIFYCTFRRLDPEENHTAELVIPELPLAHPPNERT

[2] = biological target: T2, recombinant human PD-L1 Fc; test: competition ELISA, peptides and combinations at 3 and 10 uM against human PD-1 Fc on coated human PD-L1 Fc (FIG. 5A)

T1 sequence (Q9EP73 19-238 limits assumed): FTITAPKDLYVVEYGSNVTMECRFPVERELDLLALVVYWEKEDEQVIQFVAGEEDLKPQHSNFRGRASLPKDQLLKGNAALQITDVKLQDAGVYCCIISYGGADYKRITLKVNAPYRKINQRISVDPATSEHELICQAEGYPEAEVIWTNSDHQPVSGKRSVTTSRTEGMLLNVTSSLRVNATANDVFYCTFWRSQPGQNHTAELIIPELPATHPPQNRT

| Binder | binding result (mouse PD-L1 Fc) | binding result [2] | further results |
| --- | --- | --- | --- |
| WYRMSPSNQT (Chemically synthesized peptide found by a peptide array method; also called human WT peptide) [WT peptide (SEQ ID NO:1, WYRMSPSNQT)] |  |  | binding result [1]: binds |
| YYRMSPSNQT (A derivative of the WT peptide (W1Y)) [YT peptide (SEQ ID NO:28, YYRMSPSNQT)] |  | binds |  |

More lines, main results first:

| binding result (mouse PD-L1 Fc) | binding result [2] | Binder | further results |
| --- | --- | --- | --- |
| binds |  | TRYPSPSPKPEGRF [Mouse TF peptide (SEQ ID NO:36, TRYPSPSPKPEGRF)] |  |
| binds |  | WNRLSPSNQT [Mouse WT peptide (SEQ ID NO:35, WNRLSPSNQT)] |  |
|  | binds | EYRMSPSNQT (A derivative of the WT peptide (W1E)) [ET peptide (SEQ ID NO:25, EYRMSPSNQT)] |  |

Reference: US20180141975A1 (VIROGIN BIOTECH CANADA, published 2018)
